These binders were tested against ヒトPAD4 (human, UniProt Q9UM07 1-663, limits assumed) (assay: cell-based or functional assay).
ヒトPAD4, sequence (Q9UM07 whole entry): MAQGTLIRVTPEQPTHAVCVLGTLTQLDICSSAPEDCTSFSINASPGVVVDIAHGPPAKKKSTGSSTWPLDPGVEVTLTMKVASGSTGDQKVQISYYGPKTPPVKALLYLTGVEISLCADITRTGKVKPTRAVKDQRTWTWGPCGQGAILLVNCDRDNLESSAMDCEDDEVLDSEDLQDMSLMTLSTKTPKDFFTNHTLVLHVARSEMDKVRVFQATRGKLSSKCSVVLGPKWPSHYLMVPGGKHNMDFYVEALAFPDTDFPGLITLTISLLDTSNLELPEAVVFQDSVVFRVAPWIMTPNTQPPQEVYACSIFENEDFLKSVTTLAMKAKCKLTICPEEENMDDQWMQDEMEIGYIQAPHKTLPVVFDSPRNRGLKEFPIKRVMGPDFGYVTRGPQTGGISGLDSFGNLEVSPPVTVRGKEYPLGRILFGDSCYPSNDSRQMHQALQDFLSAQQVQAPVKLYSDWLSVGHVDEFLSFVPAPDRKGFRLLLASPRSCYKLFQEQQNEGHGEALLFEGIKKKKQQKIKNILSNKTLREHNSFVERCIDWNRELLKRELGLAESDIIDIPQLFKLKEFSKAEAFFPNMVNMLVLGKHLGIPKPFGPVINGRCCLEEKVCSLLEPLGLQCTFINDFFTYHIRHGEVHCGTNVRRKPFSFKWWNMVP

Binder	ヒトPAD4酵素阻害活性 IC50 (BAEE citrullination, colorimetric) [nM]
抗PAD4抗体Lib2(4R)-1-47 (antibody, V domains shown) VH: EVQLLESGGGLVQPGGSLRLSCAASGFTFSTYAMGWVRQAPGKGLEFVAAIRNDGSWTGYGTPYKTRFTISRDNSKNTLYLQMNSLRAEDTAVYYCAKYTGSSGGSIGAWGQGTLVTVSS VL: SYELTQPPSVSVSPGQTARITCSGGNRNYYYGWYQQKPGQAPVTVIYANDKRPSGIPERFSGSNSGSTTTLTISGVQAEDEADYYCGTATTGKYVFGGGTKLTVLG	9.6
ヒト化抗PAD4抗体G8 (antibody, human IgG1, lambda, V domains shown) VH: not shown VL: SYELTQPPSVSVSPGQTARITCSGGNRNYYYGWYQQKPGQAPVTVIYANDKRPSGIPERFSGSNSGSTTTLTISGVQAEDEADYYCGTADTGKYVFGGGTKLTVLG	21.6
ヒト化抗PAD4抗体G8ss (antibody, human IgG1, lambda, V domains shown) VH: not shown VL: SYELTQPPSVSVSPGQTARITCSGGNRNYYYGWYQQKPGQAPVTVIYANDKRPSGIPERFSGSNSGSTTTLTISGVQAEDEADYYCGTADTGKYVFGGGTKLTVLG	20.3
抗PAD4抗体2-1-47 (antibody, human IgG1, lambda, V domains shown) VH: EVQLLESGGGLVQPGGSLRLSCAASGFTFSTYAMGWVRQAPGKGLEFVAAIRNDGSWTGYGTPYKTRFTISRDNSKNTLYLQMSSLRAEDTAVYYCAKYTGSSGGSIGAWGQGTLVTVSS VL: SYELTQPPSVSVSPGQTARITCSGGNRNYYYGWYQQKPGQAPVTVIYANDKRPSGIPERFSGSNSGSTTTLTISGVQAEDEADYYCGTATTGKYVFGGGTKLTVLG	12.2
抗PAD4抗体3-1-39 (antibody, human IgG1, lambda, V domains shown) VH: EVQLLESGGGLVQPGGSLRLSCAASGFTFSTYAMGWVRQAPGKGLEFVAAIRNDGSWTGTSVNAKTRFTISRDNSKNTLYLQMSSLRAEDTAVYYCAKYTGSSGGSIGAWGQGTLVTVSS VL: SYELTQPPSVSVSPGQTARITCSGGNRNYYYGWYQQKPGQAPVTVIYANDKRPSGIPERFSGSNSGSTTTLTISGVQAEDEADYYCGTATTGKYVFGGGTKLTVLG	8.8
抗PAD4抗体3-2-37 (antibody, human IgG1, lambda, V domains shown) VH: EVQLLESGGGLVQPGGSLRLSCAASGFTFSTYAMGWVRQAPGKGLEFVAAIRNDGSWTGIGYNQKSRFTISRDNSKNTLYLQMSSLRAEDTAVYYCGKYTGSSGGSIGAWGQGTLVTVSS VL: SYELTQPPSVSVSPGQTARITCSGGNRNYYYGWYQQKPGQAPVTVIYANDKRPSGIPERFSGSNSGSTTTLTISGVQAEDEADYYCGTALTGKYVFGGGTKLTVLG	15.3
抗PAD4抗体4-2-25 (antibody, human IgG1, lambda, V domains shown) VH: EVQLLESGGGLVQPGGSLRLSCAASGFTFSTYAMGWVRQAPGKGLEFVAAIRNDGSWTGYPPPLKGRFTISRDNSKNTLYLQMSSLRAEDTAVYYCAKYTGSSGGSIGAWGQGTLVTVSS VL: SYELTQPPSVSVSPGQTARITCSGGNRNYYYGWYQQKPGQAPVTVIYANDKRPSGIPERFSGSNSGSTTTLTISGVQAEDEADYYCGTAYTGKYVFGGGTKLTVLG	7.6
抗PAD4抗体Lib1(6R)-1-39 (antibody, V domains shown) VH: EVQLLESGGGLVQPGGSLRLSCAASGFTFSTYAMGWVRQAPGKGLEFVAAIRNDGSWTGTSVNAKTRFTISRDNSKNTLYLQMNSLRAEDTAVYYCAKYTGSSGGSIGAWGQGTLVTVSS VL: SYELTQPPSVSVSPGQTARITCSGGNRNYYYGWYQQKPGQAPVTVIYANDKRPSGIPERFSGSNSGSTTTLTISGVQAEDEADYYCGTATTGKYVFGGGTKLTVLG	8.7
抗PAD4抗体Lib1(6R)-2-37 (antibody, V domains shown) VH: EVQLLESGGGLVQPGGSLRLSCAASGFTFSTYAMGWVRQAPGKGLEFVAAIRNDGSWTGIGYNQKSRFTISRDNSKNTLYLQMNSLRAEDTAVYYCGKYTGSSGGSIGAWGQGTLVTVSS VL: SYELTQPPSVSVSPGQTARITCSGGNRNYYYGWYQQKPGQAPVTVIYANDKRPSGIPERFSGSNSGSTTTLTISGVQAEDEADYYCGTALTGKYVFGGGTKLTVLG	13.4
抗PAD4抗体Lib2(5R)-2-25 (antibody, V domains shown) VH: EVQLLESGGGLVQPGGSLRLSCAASGFTFSTYAMGWVRQAPGKGLEFVAAIRNDGSWTGYPPPLKGRFTISRDNSKNTLYLQMNSLRAEDTAVYYCAKYTGSSGGSIGAWGQGTLVTVSS VL: SYELTQPPSVSVSPGQTARITCSGGNRNYYYGWYQQKPGQAPVTVIYANDKRPSGIPERFSGSNSGSTTTLTISGVQAEDEADYYCGTAYTGKYVFGGGTKLTVLG	8.3
